Values quoted from earlier work, collected in publication PMC4016011.

Biological target: neuronal nitric oxide synthase PDZ (UniProt P29475)
Sequence (P29475 17-99): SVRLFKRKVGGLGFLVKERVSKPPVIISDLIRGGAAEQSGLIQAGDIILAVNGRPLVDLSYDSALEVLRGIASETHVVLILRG

syntrophin PDZ, sequence (Q13424 87-170): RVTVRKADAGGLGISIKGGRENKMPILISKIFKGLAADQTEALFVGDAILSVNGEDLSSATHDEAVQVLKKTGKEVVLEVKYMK

Kd: 600 nM
Substance: syntrophin PDZ (from UniProt Q13424)
